In patent US10441541B2, “Methods and compositions for treating osteoarthritis and promoting cartilage formation” (New York University, priority 2015, dated 2019):

Tests used:
[1] = test system: neonatal murine chondrocytes; test: Aggrecan expression in cultured chondrocytes, Alcian Blue staining; format: cell-based; conditions: 1 μM
Description: (Gosset et al., Nat Protoc 2008; 3:1253-1260). […] Following digital quantitation of alcian-blue stained aggrecan in the tissue wells, aggrecan levels are expressed as % control (±SEM) as provided in FIG. 4B.

A3 adenosine receptor = target: T1, A3 adenosine receptor (Homo sapiens, UniProt P0DMS8); conditions: cited from earlier work
T1 sequence (P0DMS8 1-318): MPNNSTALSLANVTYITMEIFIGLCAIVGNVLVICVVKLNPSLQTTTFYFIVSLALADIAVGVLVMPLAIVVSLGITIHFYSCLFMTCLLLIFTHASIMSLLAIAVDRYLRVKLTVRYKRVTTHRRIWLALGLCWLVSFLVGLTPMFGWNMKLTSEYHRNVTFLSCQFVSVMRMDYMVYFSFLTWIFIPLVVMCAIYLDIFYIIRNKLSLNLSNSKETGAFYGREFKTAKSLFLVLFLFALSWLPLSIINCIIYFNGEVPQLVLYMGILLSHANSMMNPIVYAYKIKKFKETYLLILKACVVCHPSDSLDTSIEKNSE

[2] = test system: rat tibial plateau explants; test: Adenosine release from tibial plateau explants, with and without mechanical loading; format: cell-based
Description: 14 to 19 week old male Sprague-Dawly rats were sacrificed and their tibias were harvested. The soft tissue was removed from the bone and the proximal tibia was cut in the growth plate region by using a Low Speed Diamond Wheel Saw-Model 650 (South Bay Technologies, CA, USA). Tibia surface was cut separating the medial and the lateral condyle. Samples were incubated in media containing DMEM-F12, FBS 10%, 100 ug/ml of ascorbic acid, 2 mM of […], 1% of Penicillin, Streptomycin and amphotericin. The explants were incubated with or without IL-1β (5 ng/ml) for 24 hours. After incubation the samples were placed in a glass plate in new media without FBS. The loading was programmed using the block waveform feature in Wintest 7 software of BOSE Electroforce 3200 system (Bose Inc., MN, USA). The specimens were preloaded with uniaxial compressive load that was applied at 0.005 mm/s loading rate under displacement control up to 0.01 mm. Samples undergo cyclic load at 2 Hz for 1800 cycles at 1.5N compressive load under load control. Dwell for 2700s immediately after the end of 1800th cycle. Media samples were collected after 1, 10 and 15 minutes during loading and 15 and 30 minutes after loading. Samples collected for ATP assay were stored immediately on ice.

murine chondrocytes = test: Expression of adenosine-related enzymes and transporters in chondrocytes (RT-PCR, western blot, immunofluorescence); format: cell-based, mouse
Description: (§1) Articular chondrocytes were obtained from C57BL/6 WT or A2AKO newborn mice following a protocol previously described (Thirion et al., Methods in Molecular Medicine 2004; 100:1-14), Primary chondrocytes (80% confluence) were starved for 5h. Cells were treated for 24h with mouse recombinant IL-1β (5 ng/ml) in DMEM containing 10% FBS and 1% Penicillin-Steptomycin. For intracellular ATP assay, cells were collected and lysed with RIPA buffer containing proteases and phosphatase inhibitors. […] ATP was assayed using a bioluminescent ATP determination kit following the manufacturer's instructions. Adenosine was extracted and tested by HPLC as previously described. ATP and adenosine data were normalized following protein quantification.
After cell treatments, the total protein extracts were collected and stored at −80° C. Total protein fractions were quantified using the BCA kit (Thermo Scientific). Western blotting was performed by electrophoresing […] protein through a 10% polyacrylamide gel followed by transfer of proteins to nitrocellulose membranes. […] Membranes were scanned with Li-cor Odyssey equipment and the intensities of the protein bands were quantified by densitometric analysis using Image Studio 2.0 38 software. […]

[3] = test system: primary murine chondrocytes; test: ATP and adenosine content and release of primary chondrocytes after IL-1β; format: cell-based, mouse; conditions: 5 ng/ml for 24 hours
Description: as §1

CCNC(=O)[C@H]1O[C@@H](n2cnc3c(N)nc(NCCc4ccc(CCC(=O)O)cc4)nc32)[C@H](O)[C@@H]1O [CGS21680]
aggrecan expression ([1]; Alcian Blue staining of cultured chondrocyte matrix, preliminary experiments): nearly two-fold increase
amount of alcian blue-stained material in wells ([1]; in the absence or presence of IL-1): greatest amount of alcian blue-stained material

Nc1ncnc2c1ncn2[C@@H]1O[C@H](CO)[C@@H](O)[C@H]1O [adenosine]
affinity for adenosine (A3 adenosine receptor): low-micromolar range

B1: IL-1β: Mouse and rat recombinant Il-1β from R&D Systems, inflammatory stimulus (protein, UniProt P10749 118-269, looked up)
Interleukin-1 beta: VPIRQLHYRLRDEQQKSLVLSDPYELKALHLNGQNINQQVIFSMSFVQGEPSNDKIPVALGLKGKNLYLSCVMKDGTPTLQLESVDPKQYPKKKMEKRFVFNKIEVKSKVEFESAEFPNWYISTSQAEHKPVFLGNNSGQDIIDFTMESVSS
modifications: rat protein also used
notes: Mouse and rat recombinant Il-1β from R&D Systems, inflammatory stimulus
adenosine release from cartilage explants ([2]; explants without loading): reduced adenosine release
adenosine release after weight loading ([2]; pre-treatment 5 ng/ml for 24 hours, loading within physiologic range, n=5, without pre-treatment 1657±177 nM): 960 ± 57 nM
message of ENTPD1, NT5E, PANX1, SLC29A1, SLC29A2 and ANKH (murine chondrocytes; 5 ng/ml for 24 hours, RT-PCR, n=4): significantly decrease message
NT5E protein expression and localization on chondrocyte surface (murine chondrocytes; 5 ng/ml, western blot and immunofluorescence): decreased NTSE protein expression and its localization on chondrocyte surface
ATP released into the supernates [3]: 66±3 % of control
adenosine concentration in the supernates [3]: 65 % of control
intracellular ATP [3]: 61±9 % of control
adenosine concentration in the supernates ([3]; n=9, control 143±14 nM): 94 ± 14 nM
